The values that follow come from PMC6113619.

This data set deals with T1, QscR (Pseudomonas aeruginosa PAO1?) (UniProt G3XD77).
T1 sequence: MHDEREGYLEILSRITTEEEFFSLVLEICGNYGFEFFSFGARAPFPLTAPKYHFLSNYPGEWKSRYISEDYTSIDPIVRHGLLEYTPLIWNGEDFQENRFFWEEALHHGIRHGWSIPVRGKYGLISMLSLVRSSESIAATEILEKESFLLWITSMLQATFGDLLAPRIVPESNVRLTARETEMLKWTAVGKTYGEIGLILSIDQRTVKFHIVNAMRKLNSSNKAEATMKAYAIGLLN
The experiment in a line: EMSA. The note with it: EMSA: 40 ng probe, 0-100 ng QscR in 10 ul; 20 mM Tris pH 7.5, 50 mM KCl, 10% glycerol, 1 mM DTT, 20 uM 3OC12-HSL; 20 min room temperature; 5% native gel at …. (In general: Mobility shift assays separate free from complexed probe on a gel.)

With “GCTTCACCGAGCAGAACTCCGGGCTGATCTACCGCGGGCAATCAGGCGGAATGAACGAAGCGTTCTCCGACATGGCCGGCGAGGCTGCCGAGTTCTATATGCGCGGCAAGAACGACTTCCTGATCGGCTACGACATCAAGAAGGGCAGCGGTGCGCTGCGCTACATGGACCAGCCCAGCC (double strand) [lasB promoter PCR fragment]”, the binding result was “no binding”.
The entry for “CTCTCGTGTGAAGCCATTGCTCTGATCTTTTCGGACGTTTCTTCGAGCCTAGCAAGGGTCCGGGTTCACCGAAATCTATCTCATTTGCTAGTTATAAAATTATGAAATTTGCATAAATTCTTCAGCTTCCTATTTGGAGGAAGTGAAGATGATCGTACAAATTGGTCGGCGCGAAGAGTTCGATAAAAAACTGCTGGGCGAGATGCACAAGTTGCGTGCTCAAGTGTTC (double strand) [lasI promoter PCR fragment]” is “no binding”.
